Results: patent US20210024639A1 (AGOMAB THERAPEUTICS, published 2021)
Where a chain is given by its changes, count along the chain named.

B1: chimeric llama-human IgG1 mAb 71D6 (antibody, V domains shown)
VH: ELQLVESGGGLVQPGGSLRLSCAASGFTFSSYGMSWVRQAPGKGLEWVSAINSYGGSTSYADSVKGRFTISRDNAKNTLYLQMNSLKPEDTAVYYCAKEVRADLSRYNDYESYDYWGQGTQVTVSS
VL: QPVLNQPSALSVTLGQTAKITCQGGSLGARYAHWYQQKPGQAPVLVIYDDDSRPSGIPERFSGSSSGGTATLTISGAQAEDEGDYYCQSADSSGSVFGGGTHLTVL
B2: chimeric llama-human IgG1 mAb 71C3 (antibody, V domains shown)
VH: B1 VH with E1Q, Y32H, G33A, Y54G, V100L, A102F, S105A, N108T, S112A, Y113W
VL: SYELTQPSALSVTLGQTAKITCQGGSLGSSYAHWYQQKPGQAPVLVIYDDDSRPSGIPERFSGSSSGGTATLTISGAQAEDEGDYYCQSADSSGNAAVFGGGTHLTVL
B3: chimeric llama-human IgG1 mAb 71D4 (antibody, V domains shown)
VH: B1 VH with S31G, A50D, Y54G, E99D, V100M, A102L, D103Y, S105A, S112A, Y113W
VL: B2 VL with Y2S, E3A

Each binder was assayed against T1, human MET-Fc chimeric protein (R&D Systems) (human, UniProt P08581 25-932) (assay: competition ELISA, hMET-Fc in solid phase, competitor 0.3 nM biotinylated hHGF).
T1 construct: extracellular domain; bought (R&D Systems); also called hMET; not shown: Fc portion of human IgG1
Description: (§1) To investigate along this line, we tested the competition between mAbs and HGF by ELISA. Recombinant human and mouse HGF (R&D Systems) were biotinylated at the N-terminus using NHS-LC-biotin (Thermo Scientific). MET-Fc protein, either human or mouse (R&D Systems), was immobilized in solid phase and then exposed to 0.3 nM biotinylated HGF, either human or mouse, in the presence of increasing concentrations of antibodies (0-120 nM).
(§2) A MET-Fc chimeric protein (either human or mouse) was immobilized in solid phase and exposed to a fixed concentration of biotinylated HGF (either human or mouse), in the presence of increasing concentrations of antibodies. […] Antibody-HGF competition is expressed as IC₅₀ (the concentration that achieves 50% competition) and IMAX (the maximum % competition reached at saturation).

Compared with B1, B2 is lower in “IMAX (maximum % competition)” value: 98.3% for the first, 93.6% for the second.

B3 was tested, and the “IMAX (maximum % competition)” value was 95.6%.

The binders below were run against T2, native mouse MET on living mouse cells (mouse, UniProt P16056 25-1379) (assay: cell-based or functional assay).

First: B1
Second: B2
The “protection from staurosporine, viability EC50, MLP29” value of the first is 33-fold lower: 0.95 nM for the first, 31 nM for the second.

For B3, the “protection from staurosporine, viability EC50, MLP29” value was 29.8 nM.

Going from B1 to B2, the “protection from staurosporine, viability EMAX, MLP29” value falls from 68.3% to 51.3%.

For B3, the “protection from staurosporine, viability EMAX, MLP29” value was 52.1%.

What follows are binders tested against T3, native human MET on living human cells (human, UniProt P08581 25-1390) (assay: cell-based or functional assay).

Compared with B1, B2 is 22-fold higher in “protection from staurosporine, viability EC50, MCF10A” value: 1.48 nM for the first, 31.9 nM for the second.

For B3, the “protection from staurosporine, viability EC50, MCF10A” value was 30.2 nM.

Compared with B1, B2 is lower in “protection from staurosporine, viability EMAX, MCF10A” value: 66.8% for the first, 50.2% for the second.

In the case of B3, the “protection from staurosporine, viability EMAX, MCF10A” value is reported as 51.7%.

Each binder was assayed against T3, native human MET on living human cells (assay: flow cytometry, A549 cells).
Description: (§3) We also analysed whether chimeric anti-MET antibodies bound to native human and mouse MET in living cells. […] Antibody binding to cells was analysed by flow cytometry using phycoerythrin-conjugated anti-human IgG1 antibodies (eBioscience) and a CyAn ADP analyser (Beckman Coulter). As a positive control for human MET binding, we used a commercial mouse anti-human MET antibody (R&D Systems) and phycoerythrin-conjugated anti-mouse IgG1 antibodies (eBioscience). As a positive control for mouse MET binding we used a commercial goat anti-mouse MET antibody (R&D Systems) and phycoerythrin-conjugated anti-goat IgG1 antibodies (eBioscience). […] Consistent with the data obtained in ELISA, maximal binding (EMAX) varied depending on antibody, but was similar in human and mouse cells.

Going from B1 to B2, the “EMAX (% relative to control)” value falls from 113% to 106%.

B3 was tested, and the “EMAX (% relative to control)” value was 107%.

The binders below were run against human MET ECD mutant D (mutations 1, 2) (human) (UniProt P08581) (assay: ELISA, MET ECD mutant in solid phase, mAb 0-50 nM).

Going from B1 to B2, the % binding (EMAX) compared to WT MET falls from 128% to 102%.

B3 was tested, and the % binding (EMAX) compared to WT MET was 120%.

These binders were tested against human MET ECD mutant E (mutations 2, 3, 4) (human) (UniProt P08581) (assay: ELISA, MET ECD mutant in solid phase, mAb 0-50 nM).

Compared with B1, B2 is higher in % binding (EMAX) compared to WT MET: 43.6% for the first, 59.6% for the second.

For B3, the % binding (EMAX) compared to WT MET was 57.2%.

The binders below were run against human MET ECD mutant A (mutations 1, 2, 3) (human) (UniProt P08581) (assay: ELISA, MET ECD mutant in solid phase, mAb 0-50 nM).

Going from B1 to B2, the % binding (EMAX) compared to WT MET falls from 103% to 99.8%.

With B3 the % binding (EMAX) compared to WT MET was 114%.

These binders were tested against human MET ECD mutant H (mutations 2, 4) (human) (UniProt P08581) (assay: ELISA, MET ECD mutant in solid phase, mAb 0-50 nM).

First: B1
Second: B2
The % binding (EMAX) compared to WT MET of the first is lower: 38.6% for the first, 61.6% for the second.

B3 showed a % binding (EMAX) compared to WT MET of 58.7%.

The binders below were run against T2, native mouse MET on living mouse cells (assay: flow cytometry, MLP29 cells).
Description: as §3

First: B1
Second: B2
The “EMAX (% relative to control)” value of the first is higher: 121% for the first, 115% for the second.

With B3 the “EMAX (% relative to control)” value was 94.8%.

Each binder was assayed against T4, mouse MET-Fc chimeric protein (R&D Systems) (mouse, UniProt P16056 25-929, limits assumed) (assay: competition ELISA, mMET-Fc in solid phase, competitor 0.3 nM biotinylated mHGF).
T4 construct: bought (R&D Systems); also called mMET; not shown: Fc
Description: as §1, §2

Going from B1 to B2, the “IMAX (maximum % competition)” value falls from 90.5% to 89.2%.

B3 was tested, and the “IMAX (maximum % competition)” value was 91.3%.

Molecular target: T2, native mouse MET on living mouse cells
Assay: cell-based or functional assay
Remark: another data set of the same source

B1 and B2 are the same in “cell scattering score, MLP29, 0.001 nM” value: 0 score 0-4 for the first, 0 score 0-4 for the second.

In the case of B3, the “cell scattering score, MLP29, 0.001 nM” value is reported as 0 score 0-4.

Going from B1 to B2, the “cell scattering score, MLP29, 0.004 nM” value falls from 1 score 0-4 to 0 score 0-4.

With B3 the “cell scattering score, MLP29, 0.004 nM” value was 0 score 0-4.

Going from B1 to B2, the “cell scattering score, MLP29, 0.012 nM” value falls from 2 score 0-4 to 0 score 0-4.

In the case of B3, the “cell scattering score, MLP29, 0.012 nM” value is reported as 0 score 0-4.

Compared with B1, B2 is lower in “cell scattering score, MLP29, 0.037 nM” value: 3 score 0-4 for the first, 0 score 0-4 for the second.

B3 was tested, and the “cell scattering score, MLP29, 0.037 nM” value was 0 score 0-4.

Going from B1 to B2, the “cell scattering score, MLP29, 0.111 nM” value falls from 4 score 0-4 to 1 score 0-4.

B3 was tested, and the “cell scattering score, MLP29, 0.111 nM” value was 0 score 0-4.

Going from B1 to B2, the “cell scattering score, MLP29, 0.333 nM” value falls from 4 score 0-4 to 2 score 0-4.

In the case of B3, the “cell scattering score, MLP29, 0.333 nM” value is reported as 0 score 0-4.

Going from B1 to B2, the “cell scattering score, MLP29, 1.000 nM” value falls from 4 score 0-4 to 3 score 0-4.

In the case of B3, the “cell scattering score, MLP29, 1.000 nM” value is reported as 1 score 0-4.

B1 and B2 are the same in “cell scattering score, MLP29, 3.000 nM” value: 4 score 0-4 for the first, 4 score 0-4 for the second.

For B3, the “cell scattering score, MLP29, 3.000 nM” value was 2 score 0-4.

B1 and B2 are the same in “cell scattering score, MLP29, 9.000 nM” value: 4 score 0-4 for the first, 4 score 0-4 for the second.

In the case of B3, the “cell scattering score, MLP29, 9.000 nM” value is reported as 2 score 0-4.

Molecular target: T3, native human MET on living human cells
Assay: cell-based or functional assay
Remark: another data set of the same source

B1 and B2 are the same in “cell scattering score, HPAF-II, 0.001 nM” value: 0 score 0-4 for the first, 0 score 0-4 for the second.

In the case of B3, the “cell scattering score, HPAF-II, 0.001 nM” value is reported as 0 score 0-4.

First: B1
Second: B2
The “cell scattering score, HPAF-II, 0.004 nM” value of the first is higher: 1 score 0-4 for the first, 0 score 0-4 for the second.

In the case of B3, the “cell scattering score, HPAF-II, 0.004 nM” value is reported as 0 score 0-4.

First: B1
Second: B2
The “cell scattering score, HPAF-II, 0.012 nM” value of the first is higher: 2 score 0-4 for the first, 0 score 0-4 for the second.

In the case of B3, the “cell scattering score, HPAF-II, 0.012 nM” value is reported as 0 score 0-4.

First: B1
Second: B2
The “cell scattering score, HPAF-II, 0.037 nM” value of the first is higher: 3 score 0-4 for the first, 0 score 0-4 for the second.

With B3 the “cell scattering score, HPAF-II, 0.037 nM” value was 0 score 0-4.

Compared with B1, B2 is lower in “cell scattering score, HPAF-II, 0.111 nM” value: 4 score 0-4 for the first, 1 score 0-4 for the second.

In the case of B3, the “cell scattering score, HPAF-II, 0.111 nM” value is reported as 0 score 0-4.

Compared with B1, B2 is lower in “cell scattering score, HPAF-II, 0.333 nM” value: 4 score 0-4 for the first, 2 score 0-4 for the second.

B3 was tested, and the “cell scattering score, HPAF-II, 0.333 nM” value was 0 score 0-4.

First: B1
Second: B2
The “cell scattering score, HPAF-II, 1.000 nM” value of the first is higher: 4 score 0-4 for the first, 3 score 0-4 for the second.

In the case of B3, the “cell scattering score, HPAF-II, 1.000 nM” value is reported as 1 score 0-4.

B1 and B2 are the same in “cell scattering score, HPAF-II, 3.000 nM” value: 4 score 0-4 for the first, 4 score 0-4 for the second.

With B3 the “cell scattering score, HPAF-II, 3.000 nM” value was 2 score 0-4.

B1 and B2 are the same in “cell scattering score, HPAF-II, 9.000 nM” value: 4 score 0-4 for the first, 4 score 0-4 for the second.

In the case of B3, the “cell scattering score, HPAF-II, 9.000 nM” value is reported as 2 score 0-4.

Each binder was assayed against T5, human MET extracellular domain (ECD) (human, UniProt P08581 25-932) (assay: ELISA, MET ECD in solid phase, mAb 0-50 nM).
T5 construct: range 1-932; recombinant ECD; also called hMET; human MET ECD
Description: Using human MET as a template, we mutagenized each of these residues in different permutations, generating a series of MET mutants that are fully human except for specific residues, which are llama. Next, we tested the affinity of selected SEMA-binding mAbs (71D6, 71C3, 71D4, 71A3, 71G2) and PSI-binding mAbs (76H10 and 71G3) for these MET mutants by ELISA. To this end, the various MET proteins were immobilized in solid phase (100 ng/well in a 96-well plate) and then exposed to increasing concentrations of antibodies (0-50 nM) solution. […] Wild-type human MET was used as positive control.
TABLE 18 The epitopes of MET responsible for agonistic antibody binding represent residues conserved among H. sapiens, M. musculus, R. norvegicus, M. fascicularis but not among the same species and L. glama. The relevance of residues conserved among human, mouse, rat, cynomolgus monkey but not llama MET for binding to agonistic mAbs was tested by ELISA. Wild-type (WT) or mutant (MT) human MET ECD was immobilized in solid phase and exposed to increasing concentrations of mAbs in solution. […] All binding values were normalized to the WT protein and are expressed as % binding (EMAX) compared to WT MET.

B1 and B2 are the same in “% binding (EMAX) compared to WT MET” value: 100% for the first, 100% for the second.

B3 was tested, and the “% binding (EMAX) compared to WT MET” value was 100%.
